Literature values, collected in patent publication US20240189387A1, “DOSING REGIMENS FOR HEMATOPOIETIC STEM CELL MOBILIZATION FOR STEM CELL TRANSPLANTS IN MULTIPLE MYELOMA PATIENTS” (Ensoma, Inc., priority 2021, published 2024).
Where two headings read alike, the source gives them in different places.

What was measured:
[1] = tested on: neutrophil activation markers (L-selectin, CD11b, CD18, CD66); details: 5 days of G-CSF treatment, Falanga et al., Blood 1999; cited from earlier work
[2] = G-CSF; bone pain, headache, myalgia, and/or fatigue (up to 1+ week); Pulsiper et al. 2009; cited from earlier work
[3] = tested on: graft cell subsets (T cells, B cells, NK cells); details: cited from earlier work
[4] = tested on: CD90+CD45RA− among CD34+ cells; details: Goncalves ASTCT 2021; cited from earlier work
[5] = Chen et al., 2019, 2 LP plerixafor, 1 LP G-CSF
[6] = Devine et al, 2008, yield of 1 LP
[7] = G-CSF, Chaidos et al, Blood 2012

B1: G-CSF: Filgrastim (G-CSF), most common clinical hematopoietic stem cell mobilization protocol, five days (protein, chains of the INN, looked up)
chain: MTPLGPASSLPQSFLLKCLEQVRKIQGDGAALQEKLCATYKLCHPEELVLLGHSLGIPWAPLSSCPSQALQLAGCLSQLHSGLFLYQGLLQALEGISPELGPTLDTLQLDVADFATTIWQQMEELGMAPALQPTQGAMPAFASAFQRRAGGVLVASHLQSFLEVSYRVLRHLAQP
fold increase in neutrophil activation markers [1]: ~2.7 fold
tolerability [2]: Majority with bone pain,
graft CD34+ Median (range) ([3]; Chen et al., 2019, 2 LP for plerixafor (N = 50+), 1 LP for G-CSF (N = 112+)): 4.2e+06 kg⁻¹
graft CD3+ Median (range) [3, 5]: 2.5e+08 kg⁻¹
graft CD4+ Median (range) [3, 5]: 1.5e+08 kg⁻¹
graft CD8+ Median (range) [3, 5]: 7e+07 kg⁻¹
graft CD19+ Median (range) [3, 5]: 5e+07 kg⁻¹
graft CD56+ Median (range) [3, 5]: 1e+07 kg⁻¹
graft CD3+ Median (range) [3, 6]: 1.3 (1.2-6.8) ×10^8/kg
graft CD4+ Median (range) [3, 6]: 1.1 (0.7-3.2) ×10^8/kg
graft CD8+ Median (range) [3, 6]: 0.4 (0.3-3.4) ×10^8/kg
graft CD56+ Median (range) [3, 6]: 0.2 (0.1-0.5) ×10^8/kg
graft CD34+ Median (range) ([3]; Devine et al, 2008, yield of 1 LP, plerixafor N = 24, G-CSF N = 8): 4.2 (2.5-18.7) ×10^6/kg
TNC/kg donor weight Median (range) ([3]; G-CSF, 40 healthy donors, Singhal et al, BMT 2000): 7.2 (3.2-14.0) ×10^8 cells
frequency of CD3+ T cells in graft, Median ([3]; G-CSF, 78 healthy donors, Chaidos et al, Blood 2012): 45.3 % of CD45+
frequency of CD4+ T cells in graft, Median [3, 7]: 29.8 % of CD45+
frequency of CD8+ T cells in graft, Median [3, 7]: 11.8 % of CD45+
frequency of CD19+ B cells in graft, Median [3, 7]: 10.5 % of CD45+
frequency of CD56+ NK cells in graft, Median [3, 7]: 3.2 % of CD45+
frequency of Tregs in graft, Median [3, 7]: 3.5 % of CD4+ T cells
frequency of iNKT cells in graft, Median [3, 7]: 0.04 % of CD3+
CD90+CD45RA− among CD34+ cells with a regimen that includes G-CSF [4]: 6%
